Substitutions are numbered along the chain they refer to. Numbers in names are those of the source.
B1: GpH7-A5/GpH7-B3 variant K326_08L/GpL16-k0 (antibody, human IgG1, kappa)
heavy 1: not shown
heavy 2: not shown
light: DIVMTQSPLSLPVTPGEPASISCQASESLVHSNRNTYLHWYLQKPGQSPQLLIYKVSNRFSGVPDRFSGSGSGTDFTLKISRVEAEDVGVYYCSQNTHVPPTFGQGTKVEIERTVAAPSVFIFPPSDEQLKSGTASVVCLLNNFYPREAKVQWKVDNALQSGNSQESVTEQDSKDSTYSLSSTLTLSKADYEKHKVYACEVTHQGLSSPVTKSFNRGEC
notes: also called He Ab K326_08L
B2: GpH7-A5/GpH7-B3 variant S298_14T/GpL16-k0 (antibody, human IgG1, kappa)
heavy 1: not shown
heavy 2: not shown
light: B1 light
notes: also called He Ab S298_14T
B3: GpH7-A5/GpH7-B3 variant T335_19Q/GpL16-k0 (antibody, human IgG1, kappa)
heavy 1: not shown
heavy 2: not shown
light: B1 light
notes: also called He Ab T335_19Q
B4: GpH7-A5/GpH7-B3 variant K334_09D/GpL16-k0 (antibody, human IgG1, kappa)
heavy 1: not shown
heavy 2: not shown
light: B1 light
notes: also called He Ab K334_09D
B5: GpH7-A5/GpH7-B3 variant S337_04F/GpL16-k0 (antibody, human IgG1, kappa)
heavy 1: not shown
heavy 2: not shown
light: B1 light
notes: also called He Ab S337_04F
B6: GpH7-TA4/GpH7-B3-15-02A/GpL16-k0 (antibody, human IgG1, kappa)
heavy 1: QVQLVQSGAEVKKPGASVTVSCKASGYTFTDYEMHWIRQPPGEGLEWIGAIDPKTGDTAYSESFQDRVTLTADKSTSTAYMELSSLTSEDTAVYYCTRFYSYTYWGQGTLVTVSSASTKGPSVFPLAPSSKSTSGGTAALGCLVKDYFPEPVTVSWNSGALTSGVHTFPAVLQSSGLYSLSSVVTVPSSSLGTQTYICNVNHKPSNTKVDKKVEPKSCDKTHTCPPCPAPEYLWGPSVFLFPPKPKDTLMISRTPEVTCVVVDVSHEDPEVKFNWYVDGVEVHNAKTKPREEQYNSTYRVVSVLTVLHQDWLNGKEYKCKVSNKALPAPIEKTISKAKGQPREPQVYTLPPSRKELTKNQVSLTCLVKGFYPSDIAVEWESNGQPENNYKTTPPVLDSDGSFFLYSKLTVDKSRWQQGNVFSCSVMHEALHNRYTQKSLSLSP
heavy 2: not shown
light: B1 light
notes: H1 L234Y and G236W; H2 S298A
B7: GpH7-A5/GpH7-B3 variant L234_20W/GpL16-k0 (antibody, human IgG1, kappa)
heavy 1: not shown
heavy 2: not shown
light: B1 light
notes: also called He Ab L234_20W
B8: GpH7-TA6/GpH7-B3/GpL16-k0 (antibody, human IgG1, kappa)
heavy 1: B6 heavy 1 with Y232L, S296A
heavy 2: not shown
light: B1 light
notes: H1 G236W and S298A
B9: GpH7-A5/GpH7-B3 variant T335_07I/GpL16-k0 (antibody, human IgG1, kappa)
heavy 1: not shown
heavy 2: not shown
light: B1 light
notes: also called He Ab T335_07I
B10: GpH7-TA2/GpH7-B3-01-15Y/GpL16-k0 (antibody, human IgG1, kappa)
heavy 1: B6 heavy 1 with Y232L
heavy 2: not shown
light: B1 light
notes: H1 G236W; H2 L234Y
B11: GpH7-TA5/GpH7-B3/GpL16-k0 (antibody, human IgG1, kappa)
heavy 1: B6 heavy 1 with W234G, S296A
heavy 2: not shown
light: B1 light
notes: H1 L234Y and S298A
B12: GpH7-A5/GpH7-B3 variant T335_15Y/GpL16-k0 (antibody, human IgG1, kappa)
heavy 1: not shown
heavy 2: not shown
light: B1 light
notes: also called He Ab T335_15Y
B13: GpH7-A5/GpH7-B3 variant T335_13S/GpL16-k0 (antibody, human IgG1, kappa)
heavy 1: not shown
heavy 2: not shown
light: B1 light
notes: also called He Ab T335_13S
B14: GpH7-A5/GpH7-B3 variant S337_20W/GpL16-k0 (antibody, human IgG1, kappa)
heavy 1: not shown
heavy 2: not shown
light: B1 light
notes: also called He Ab S337_20W
B15: GpH7-A5/GpH7-B3 variant S267_09D/GpL16-k0 (antibody, human IgG1, kappa)
heavy 1: not shown
heavy 2: not shown
light: B1 light
notes: also called He Ab S267_09D
B16: GpH7-A5/GpH7-B3 variant T335_20W/GpL16-k0 (antibody, human IgG1, kappa)
heavy 1: not shown
heavy 2: not shown
light: B1 light
notes: also called He Ab T335_20W
B17: GpH7-TA7/GpH7-B3/GpL16-k0 (antibody, human IgG1, kappa)
heavy 1: B6 heavy 1 with S296A
heavy 2: not shown
light: B1 light
notes: H1 L234Y, G236W and S298A
B18: GpH7-A5/GpH7-B3 variant S337_10E/GpL16-k0 (antibody, human IgG1, kappa)
heavy 1: not shown
heavy 2: not shown
light: B1 light
notes: also called He Ab S337_10E
B19: GpH7-TA3/GpH7-B3-03-20W/GpL16-k0 (antibody, human IgG1, kappa)
heavy 1: B6 heavy 1 with Y232L, W234G, S296A
heavy 2: not shown
light: B1 light
notes: H1 S298A; H2 G236W
B20: GpH7-A5/GpH7-B3 variant S324_15Y/GpL16-k0 (antibody, human IgG1, kappa)
heavy 1: not shown
heavy 2: not shown
light: B1 light
notes: also called He Ab S324_15Y
B21: GpH7-TA1/GpH7-B3-15-02A/GpL16-k0 (antibody, human IgG1, kappa)
heavy 1: B6 heavy 1 with W234G
heavy 2: not shown
light: B1 light
notes: H1 L234Y; H2 S298A
B22: GpH7-A5/GpH7-B3-03-20W/GpL16-k0 (antibody, human IgG1, kappa)
heavy 1: not shown
heavy 2: not shown
light: B1 light
notes: also called He Ab G236_20W; GpH7-A5/GpH7-B3 variant G236_20W/GpL16-k0
B23: GpH7-A5/GpH7-B3 variant L234_04F/GpL16-k0 (antibody, human IgG1, kappa)
heavy 1: not shown
heavy 2: not shown
light: B1 light
notes: also called He Ab L234_04F
B24: GpH7-A5/GpH7-B16/GpL16-k0 (antibody, human IgG1, kappa)
heavy 1: not shown
heavy 2: not shown
light: B1 light
notes: also called He Ab L234_10E; GpH7-A5/GpH7-B3 variant L234_10E/GpL16-k0
B25: GpH7-A5/GpH7-B3 variant S267_02A/GpL16-k0 (antibody, human IgG1, kappa)
heavy 1: not shown
heavy 2: not shown
light: B1 light
notes: also called He Ab S267_02A
B26: GpH7-A5/GpH7-B3 variant K334_01G/GpL16-k0 (antibody, human IgG1, kappa)
heavy 1: not shown
heavy 2: not shown
light: B1 light
notes: also called He Ab K334_01G
B27: GpH7-A5/GpH7-B3 variant S337_14T/GpL16-k0 (antibody, human IgG1, kappa)
heavy 1: not shown
heavy 2: not shown
light: B1 light
notes: also called He Ab S337_14T
B28: GpH7-A5/GpH7-B3 variant S324_02A/GpL16-k0 (antibody, human IgG1, kappa)
heavy 1: not shown
heavy 2: not shown
light: B1 light
notes: also called He Ab S324_02A
B29: GpH7-A5/GpH7-B3 variant P271_01G/GpL16-k0 (antibody, human IgG1, kappa)
heavy 1: not shown
heavy 2: not shown
light: B1 light
notes: also called He Ab P271_01G
B30: GpH7-A5/GpH7-B3 variant S324_16H/GpL16-k0 (antibody, human IgG1, kappa)
heavy 1: not shown
heavy 2: not shown
light: B1 light
notes: also called He Ab S324_16H
B31: GpH7-A5/GpH7-B3 variant S337_18N/GpL16-k0 (antibody, human IgG1, kappa)
heavy 1: not shown
heavy 2: not shown
light: B1 light
notes: also called He Ab S337_18N
B32: GpH7-A5/GpH7-B3 variant L234_07I/GpL16-k0 (antibody, human IgG1, kappa)
heavy 1: not shown
heavy 2: not shown
light: B1 light
notes: also called He Ab L234_07I
B33: GpH7-A5/GpH7-B3 variant Q295_14T/GpL16-k0 (antibody, human IgG1, kappa)
heavy 1: not shown
heavy 2: not shown
light: B1 light
notes: also called He Ab Q295_14T
B34: GpH7-A5/GpH7-B3 variant V266_08L/GpL16-k0 (antibody, human IgG1, kappa)
heavy 1: not shown
heavy 2: not shown
light: B1 light
notes: also called He Ab V266_08L
B35: GpH7-A5/GpH7-B3 variant S337_09D/GpL16-k0 (antibody, human IgG1, kappa)
heavy 1: not shown
heavy 2: not shown
light: B1 light
notes: also called He Ab S337_09D
B36: GpH7-A5/GpH7-B17/GpL16-k0 (antibody, human IgG1, kappa)
heavy 1: not shown
heavy 2: not shown
light: B1 light
notes: also called He Ab L234_09D; GpH7-A5/GpH7-B3 variant L234_09D/GpL16-k0
B37: GpH7-TA4/GpH7-B3/GpL16-k0 (antibody, human IgG1, kappa)
heavy 1: B6 heavy 1
heavy 2: not shown
light: B1 light
notes: H1 L234Y and G236W
B38: GpH7-A5/GpH7-B3-01-15Y/GpL16-k0 (antibody, human IgG1, kappa)
heavy 1: not shown
heavy 2: not shown
light: B1 light
notes: also called He Ab L234_15Y; GpH7-A5/GpH7-B3 variant L234_15Y/GpL16-k0
B39: GpH7-A5/GpH7-B3 variant T335_10E/GpL16-k0 (antibody, human IgG1, kappa)
heavy 1: not shown
heavy 2: not shown
light: B1 light
notes: also called He Ab T335_10E
B40: GpH7-A5/GpH7-B3 variant P238_10E/GpL16-k0 (antibody, human IgG1, kappa)
heavy 1: not shown
heavy 2: not shown
light: B1 light
notes: also called He Ab P238_10E
B41: GpH7-TA5/GpH7-B3-03-20W/GpL16-k0 (antibody, human IgG1, kappa)
heavy 1: B6 heavy 1 with W234G, S296A
heavy 2: not shown
light: B1 light
notes: H1 L234Y and S298A; H2 G236W
B42: GpH7-A5/GpH7-B3-15-02A/GpL16-k0 (antibody, human IgG1, kappa)
heavy 1: not shown
heavy 2: not shown
light: B1 light
notes: H2 S298A
B43: GpH7-A5/GpH7-B3 variant P238_09D/GpL16-k0 (antibody, human IgG1, kappa)
heavy 1: not shown
heavy 2: not shown
light: B1 light
notes: also called He Ab P238_09D
B44: GpH7-TA6/GpH7-B3-01-15Y/GpL16-k0 (antibody, human IgG1, kappa)
heavy 1: B6 heavy 1 with Y232L, S296A
heavy 2: not shown
light: B1 light
notes: H1 G236W and S298A; H2 L234Y
B45: GpH7-A5/GpH7-B3 variant S337_15Y/GpL16-k0 (antibody, human IgG1, kappa)
heavy 1: not shown
heavy 2: not shown
light: B1 light
notes: also called He Ab S337_15Y
B46: GpH7-A5/GpH7-B3 variant T335_16H/GpL16-k0 (antibody, human IgG1, kappa)
heavy 1: not shown
heavy 2: not shown
light: B1 light
notes: also called He Ab T335_16H

Molecular target: T1, FcγRIIIa extracellular domain with C-terminal His tag (human, UniProt P08637 17-208)
T1 construct: extracellular domain; also called FcgRIIIa; 3a; not shown: His tag at the C terminus
Assay: SPR relative binding; GpH7-A5/GpH7-B3/GpL16-k0 = 100
Method: Analysis of interaction between objective antibody and the FcγR was carried out using Biacore T100 (GE Healthcare). HBS-EP+ (GE Healthcare) was used as the running buffer, and the measurement temperature was set to 25° C. Chips produced by immobilizing the antigen peptide by the amine coupling method to a Series S Sencor Chip CM5 (GE Healthcare), or alternatively, chips produced by allowing preliminarily biotinylated antigen peptides to interact with and immobilize onto a Series S Sensor Chip SA (certified) (GE Healthcare) were used. Antibodies of interest were captured onto an antigen peptide-immobilized chip, and allowed to interact to each FcγR diluted with running buffer. To regenerate and repeatedly use the chip, the antibodies captured on the chip were washed off by reacting 10 mM glycine-HCl, pH 1.5.
The FcγR-binding activity of each antibody was assessed primarily using as an indicator the FcγR-binding activity and dissociation constant for FcγR.

T1 sequence (P08637 17-208): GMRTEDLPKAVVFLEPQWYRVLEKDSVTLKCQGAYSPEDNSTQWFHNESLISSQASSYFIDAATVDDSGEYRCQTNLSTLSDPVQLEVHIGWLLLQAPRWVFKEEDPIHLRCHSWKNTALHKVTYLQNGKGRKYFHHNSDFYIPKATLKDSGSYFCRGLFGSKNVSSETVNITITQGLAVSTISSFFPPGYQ

Row | Binder | He/Con_3a | FcγRIIIa BINDING ACTIVITY
1 | B1 | 114 % of control | –
2 | B2 | 113 % of control | –
3 | B3 | 102 % of control | –
4 | B4 | 160 % of control | –
5 | B5 | 101 % of control | –
6 | B6 | – | 151 % of control
7 | B7 | 107 % of control | –
8 | B8 | – | 228 % of control
9 | B9 | 107 % of control | –
10 | B10 | – | 130 % of control
11 | B11 | – | 208 % of control
12 | B12 | 104 % of control | –
13 | B13 | 105 % of control | –
14 | B14 | 101 % of control | –
15 | B15 | 181 % of control | –
16 | B16 | 102 % of control | –
17 | B17 | – | 201 % of control
18 | B18 | 105 % of control | –
19 | B19 | – | 70 % of control
20 | B20 | 101 % of control | –
21 | B21 | – | 142 % of control
22 | B22 | 135 % of control | 140 % of control
23 | B23 | 118 % of control | –

Row | Binder | He/Con_3a | FcγRIIIa BINDING ACTIVITY
24 | B24 | 114 % of control | –
25 | B25 | 150 % of control | –
26 | B26 | 121 % of control | –
27 | B27 | 101 % of control | –
28 | B28 | 104 % of control | –
29 | B29 | 113 % of control | –
30 | B30 | 104 % of control | –
31 | B31 | 104 % of control | –
32 | B32 | 103 % of control | –
33 | B33 | 115 % of control | –
34 | B34 | 118 % of control | –
35 | B35 | 110 % of control | –
36 | B36 | 117 % of control | –
37 | B37 | – | 168 % of control
38 | B38 | 130 % of control | 131 % of control
39 | B39 | 107 % of control | –
40 | B40 | 105 % of control | –
41 | B41 | – | 97 % of control
42 | B42 | – | 163 % of control
43 | B43 | 106 % of control | –
44 | B44 | – | 103 % of control
45 | B45 | 102 % of control | –
46 | B46 | 104 % of control | –

From patent US20180155451A1 (published 2018)
